Patent US20120238493A1 (INDIANA UNIVERSITY RESEARCH AND TECHNOLOGY, published 2012)
Where two headings read alike, the source gives them in different places. Bridges are numbered along the chain shown (N, C = ends). Where no end group is shown, it is not given here. Side-chain parts run from the residue outwards. [ ]: non-standard residue; d: D form. Aib = CC(C)(N)C(=O)O

Columns and labels:
Assay in all cases: cell-based or functional assay
[1] = target: T1, GIP receptor (UniProt P48546 22-466, limits assumed)
T1 sequence (looked up): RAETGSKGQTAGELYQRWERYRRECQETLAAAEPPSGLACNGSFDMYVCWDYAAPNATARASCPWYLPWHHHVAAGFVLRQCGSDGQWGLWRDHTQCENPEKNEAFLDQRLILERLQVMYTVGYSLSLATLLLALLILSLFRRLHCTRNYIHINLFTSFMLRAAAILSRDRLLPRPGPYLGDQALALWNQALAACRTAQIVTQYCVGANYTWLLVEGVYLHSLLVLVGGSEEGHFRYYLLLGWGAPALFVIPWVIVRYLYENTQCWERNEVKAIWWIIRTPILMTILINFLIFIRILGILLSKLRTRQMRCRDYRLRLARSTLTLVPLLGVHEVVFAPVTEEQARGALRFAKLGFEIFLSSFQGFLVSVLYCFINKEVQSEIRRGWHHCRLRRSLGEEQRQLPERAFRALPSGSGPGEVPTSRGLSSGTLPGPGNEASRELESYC

[2] = target: T2, glucagon receptor (UniProt P47871 26-477, limits assumed)
T2 sequence (P47871 26-477 limits assumed): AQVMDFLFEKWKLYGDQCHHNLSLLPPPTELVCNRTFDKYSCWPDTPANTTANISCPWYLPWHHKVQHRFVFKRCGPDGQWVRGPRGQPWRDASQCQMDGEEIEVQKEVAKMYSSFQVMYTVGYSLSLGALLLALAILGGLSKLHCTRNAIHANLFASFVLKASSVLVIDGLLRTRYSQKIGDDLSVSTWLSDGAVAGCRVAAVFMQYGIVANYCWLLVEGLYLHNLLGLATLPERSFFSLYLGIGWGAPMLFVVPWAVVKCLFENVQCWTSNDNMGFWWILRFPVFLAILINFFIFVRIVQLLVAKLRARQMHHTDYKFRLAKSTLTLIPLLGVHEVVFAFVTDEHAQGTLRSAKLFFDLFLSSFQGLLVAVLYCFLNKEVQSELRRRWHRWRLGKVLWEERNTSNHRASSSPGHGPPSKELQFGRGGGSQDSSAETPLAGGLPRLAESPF

[3] = target: T1, GIP receptor; remark: listed apart in the source
[4] = target: T2, glucagon receptor; remark: listed apart in the source
[5] = target: T3, GLP-1 receptor (UniProt P43220 24-463, limits assumed)
[6] = target: T3, GLP-1 receptor; remark: listed apart in the source
[7] = target: T1, GIP receptor; remark: listed apart in the source
[8] = target: T2, glucagon receptor; remark: listed apart in the source
[9] = target: T3, GLP-1 receptor; remark: listed apart in the source

Binder: Y[Aib]EGTFTSDYSIYLDKQAA[Aib]EFVNWLLAGGPSSGAPPPSK-NH2 [mt-263 (SEQ ID NO: 10)]
- EC50 (cAMP reporter) [1]: 3.3 pM
- EC50 (cAMP reporter) [2]: 3140 pM
- EC50 (cAMP reporter) [3]: 5.4 pM
- EC50 (cAMP reporter) [4]: 4040 pM

B1: mt-396 (SEQ ID NO: 16) (peptide)
peptide: YSQGTFTSDYSKYLDEIHQKDFVNWLLAGGPSSGAPPPS-NH2
modifications: lactam 16-20; N-terminus assumed
SMILES: CC[C@H](C)[C@@H]1NC(=O)[C@@H](NC(=O)[C@H](CC(=O)O)NC(=O)[C@H](CC(C)C)NC(=O)[C@H](Cc2ccc(O)cc2)NC(=O)[C@H](CCCCN)NC(=O)[C@H](CO)NC(=O)[C@H](Cc2ccc(O)cc2)NC(=O)[C@H](CC(=O)O)NC(=O)[C@H](CO)NC(=O)[C@@H](NC(=O)[C@H](Cc2ccccc2)NC(=O)[C@@H](NC(=O)CNC(=O)[C@H](CCC(N)=O)NC(=O)[C@H](CO)NC(=O)[C@@H](N)Cc2ccc(O)cc2)[C@@H](C)O)[C@@H](C)O)CCC(=O)NCCCC[C@@H](C(=O)N[C@@H](CC(=O)O)C(=O)N[C@@H](Cc2ccccc2)C(=O)N[C@H](C(=O)N[C@@H](CC(N)=O)C(=O)N[C@@H](Cc2c[nH]c3ccccc23)C(=O)N[C@@H](CC(C)C)C(=O)N[C@@H](CC(C)C)C(=O)N[C@@H](C)C(=O)NCC(=O)NCC(=O)N2CCC[C@H]2C(=O)N[C@@H](CO)C(=O)N[C@@H](CO)C(=O)NCC(=O)N[C@@H](C)C(=O)N2CCC[C@H]2C(=O)N2CCC[C@H]2C(=O)N2CCC[C@H]2C(=O)N[C@@H](CO)C(N)=O)C(C)C)NC(=O)[C@H](CCC(N)=O)NC(=O)[C@H](Cc2c[nH]cn2)NC1=O
- EC50 (cAMP reporter) [5]: 9.3 pM
- relative activity (to native hormone) [5]: 262%
- EC50 (cAMP reporter) [1]: 3.4 pM
- relative activity (to native hormone) [1]: 403%
- EC50 (cAMP reporter) [2]: 2900 pM
- relative activity (to native hormone) [2]: 1.03%

Binder: Y[Aib]EGTFISDYSIAMDKIHQQDFVNWLLAQKGKKNWLKHNITQ-NH2 (not fully specified) [mt-217 (SEQ ID NO: 19)]
- EC50 (cAMP reporter) [6]: 222 pM
- relative activity (to native hormone) [6]: 11.3%
- EC50 (cAMP reporter) [7]: 9570 pM
- relative activity (to native hormone) [7]: 0.2%
- EC50 (cAMP reporter) [8]: 13900 pM
- relative activity (to native hormone) [8]: 0.82%

Binder: Y[Aib]EGTFISDYSIAMDKIHQQDFVCWLLAQKGKKNWLKHNITQ-NH2 (not fully specified) [mt-220 (SEQ ID NO: 22)]
- EC50 (cAMP reporter) [6]: 180 pM
- relative activity (to native hormone) [6]: 13.9%
- EC50 (cAMP reporter) [7]: 10300 pM
- relative activity (to native hormone) [7]: 0.19%
- EC50 (cAMP reporter) [8]: 9670 pM
- relative activity (to native hormone) [8]: 1.18%

B2: mt-218 (SEQ ID NO: 20) (peptide)
peptide: YXEGTFISDYSIAMDKIHQQDFVNWLLAQKGKKNWLKHNITQ
modifications: not fully specified; AIB at position 2; C-terminal amide; Glu16-Lys20 lactam in some Table 3 peptides, absent in others (which ones is not stated)
- EC50 (cAMP reporter) [6]: 338 pM
- relative activity (to native hormone) [6]: 7.4%
- EC50 (cAMP reporter) [7]: 14300 pM
- relative activity (to native hormone) [7]: 0.13%
- EC50 (cAMP reporter) [8]: 16300 pM
- relative activity (to native hormone) [8]: 0.7%

Binder: Y[Aib]PGTFISDYSIAMDKIHQQDFVCWLLAQKGKKNWLKHNITQ-NH2 (not fully specified) [mt-226 (SEQ ID NO: 24)]
- EC50 (cAMP reporter) [6]: 97 pM
- EC50 (cAMP reporter) [7]: 1470 pM
- EC50 (cAMP reporter) [8]: 3460 pM

B3: mt-403 (SEQ ID NO: 12) (peptide)
peptide: HSQGTFISDYSKYLDEIHQKEFIAWLMNT-NH2
modifications: lactam 16-20; not fully specified (residue 2); also: AIB at position 2 and position 20 (given S and K), any further modification only
- EC50 (cAMP reporter) [9]: 2.7 pM
- relative activity (to native hormone) [9]: 582%
- EC50 (cAMP reporter) [3]: 6.1 pM
- relative activity (to native hormone) [3]: 273%
- EC50 (cAMP reporter) [4]: 7.7 pM
- relative activity (to native hormone) [4]: 987%

B4: mt-404 (SEQ ID NO: 13) (peptide)
peptide: HSQGTFISDYSKALDEIHQKEFIAWLMNT-NH2
modifications: lactam 16-20; not fully specified (residue 2); also: AIB at position 2 and position 20 (given S and K), any further modification only
- EC50 (cAMP reporter) [9]: 6 pM
- relative activity (to native hormone) [9]: 258%
- EC50 (cAMP reporter) [3]: 32.7 pM
- relative activity (to native hormone) [3]: 50.6%
- EC50 (cAMP reporter) [4]: 108 pM
- relative activity (to native hormone) [4]: 70.8%

Binder: Y[Aib]QGTFTSDYSIYLDEQAAKEFVNWLLAGGPSSGAPPPSK([Ala-Cys(PEG 40 kDa)-Ac])-NH2 (lactam 16-20) [mt-225 (SEQ ID NO: 23)]
- EC50 (cAMP reporter) [6]: 98 pM
- EC50 (cAMP reporter) [7]: 1900 pM
- EC50 (cAMP reporter) [8]: 2710 pM

Binder: Y[Aib]PGTFISDYSIAMDKIHQQDFVNWLLAQKGKKNWLKHNITQ-NH2 (not fully specified) [mt-219 (SEQ ID NO: 21)]
- EC50 (cAMP reporter) [6]: 151 pM
- relative activity (to native hormone) [6]: 16.6%
- EC50 (cAMP reporter) [7]: 6160 pM
- relative activity (to native hormone) [7]: 0.31%
- EC50 (cAMP reporter) [8]: 17600 pM
- relative activity (to native hormone) [8]: 0.65%

B5: mt-397 (SEQ ID NO: 17) (peptide)
peptide: YSQGTFTSDYSKYLDEIHQKEFVNWLLAQ-NH2
modifications: staple (positions not given here); not fully specified; also: olefinic cross-link, positions not given here
- EC50 (cAMP reporter) [5]: 8.5 pM
- relative activity (to native hormone) [5]: 288%
- EC50 (cAMP reporter) [1]: 2.9 pM
- relative activity (to native hormone) [1]: 470%
- EC50 (cAMP reporter) [2]: 5350 pM
- relative activity (to native hormone) [2]: 0.56%

B6: mt-395 (SEQ ID NO: 15) (peptide)
peptide: HSQGTFTSDYSKYLDEIHQKDFVNWLLAGGPSSGAPPPS-NH2
modifications: lactam 16-20; N-terminus assumed
SMILES: CC[C@H](C)[C@@H]1NC(=O)[C@@H](NC(=O)[C@H](CC(=O)O)NC(=O)[C@H](CC(C)C)NC(=O)[C@H](Cc2ccc(O)cc2)NC(=O)[C@H](CCCCN)NC(=O)[C@H](CO)NC(=O)[C@H](Cc2ccc(O)cc2)NC(=O)[C@H](CC(=O)O)NC(=O)[C@H](CO)NC(=O)[C@@H](NC(=O)[C@H](Cc2ccccc2)NC(=O)[C@@H](NC(=O)CNC(=O)[C@H](CCC(N)=O)NC(=O)[C@H](CO)NC(=O)[C@@H](N)Cc2c[nH]cn2)[C@@H](C)O)[C@@H](C)O)CCC(=O)NCCCC[C@@H](C(=O)N[C@@H](CC(=O)O)C(=O)N[C@@H](Cc2ccccc2)C(=O)N[C@H](C(=O)N[C@@H](CC(N)=O)C(=O)N[C@@H](Cc2c[nH]c3ccccc23)C(=O)N[C@@H](CC(C)C)C(=O)N[C@@H](CC(C)C)C(=O)N[C@@H](C)C(=O)NCC(=O)NCC(=O)N2CCC[C@H]2C(=O)N[C@@H](CO)C(=O)N[C@@H](CO)C(=O)NCC(=O)N[C@@H](C)C(=O)N2CCC[C@H]2C(=O)N2CCC[C@H]2C(=O)N2CCC[C@H]2C(=O)N[C@@H](CO)C(N)=O)C(C)C)NC(=O)[C@H](CCC(N)=O)NC(=O)[C@H](Cc2c[nH]cn2)NC1=O
- EC50 (cAMP reporter) [5]: 7.6 pM
- relative activity (to native hormone) [5]: 322%
- EC50 (cAMP reporter) [1]: 2.5 pM
- relative activity (to native hormone) [1]: 537%
- EC50 (cAMP reporter) [2]: 3410 pM
- relative activity (to native hormone) [2]: 0.87%

Binder: Y[Aib]QGTFTSDYSIYLDKKAA[Aib]EFVNWLLAGGPSSGAPPPSK-NH2 [mt-402 (SEQ ID NO: 11)]
- EC50 (cAMP reporter) [9]: 7 pM
- EC50 (cAMP reporter) [3]: 18.5 pM

B7: mt-398 (SEQ ID NO: 18) (peptide)
peptide: YSQGTFTSDYSKYLDEQAAKEFIAWLMNGGPSSGAPPPS-NH2
modifications: lactam 16-20; N-terminus assumed
SMILES: CC[C@H](C)[C@H](NC(=O)[C@H](Cc1ccccc1)NC(=O)[C@H](CCC(=O)O)NC(=O)[C@@H]1CCCCNC(=O)CC[C@H](NC(=O)[C@H](CC(=O)O)NC(=O)[C@H](CC(C)C)NC(=O)[C@H](Cc2ccc(O)cc2)NC(=O)[C@H](CCCCN)NC(=O)[C@H](CO)NC(=O)[C@H](Cc2ccc(O)cc2)NC(=O)[C@H](CC(=O)O)NC(=O)[C@H](CO)NC(=O)[C@@H](NC(=O)[C@H](Cc2ccccc2)NC(=O)[C@@H](NC(=O)CNC(=O)[C@H](CCC(N)=O)NC(=O)[C@H](CO)NC(=O)[C@@H](N)Cc2ccc(O)cc2)[C@@H](C)O)[C@@H](C)O)C(=O)N[C@@H](CCC(N)=O)C(=O)N[C@@H](C)C(=O)N[C@@H](C)C(=O)N1)C(=O)N[C@@H](C)C(=O)N[C@@H](Cc1c[nH]c2ccccc12)C(=O)N[C@@H](CC(C)C)C(=O)N[C@@H](CCSC)C(=O)N[C@@H](CC(N)=O)C(=O)NCC(=O)NCC(=O)N1CCC[C@H]1C(=O)N[C@@H](CO)C(=O)N[C@@H](CO)C(=O)NCC(=O)N[C@@H](C)C(=O)N1CCC[C@H]1C(=O)N1CCC[C@H]1C(=O)N1CCC[C@H]1C(=O)N[C@@H](CO)C(N)=O
- EC50 (cAMP reporter) [5]: 7.8 pM
- relative activity (to native hormone) [5]: 315%
- EC50 (cAMP reporter) [1]: 3.1 pM
- relative activity (to native hormone) [1]: 434%
- EC50 (cAMP reporter) [2]: 3740 pM
- relative activity (to native hormone) [2]: 0.8%
